Results reported in patent publication US20260035464A1.

Assays:
[1] = biological target: human BTLA extracellular domain with C-terminal 10xHis tag (human) (UniProt Q7Z6A9); assay: BLI (Octet RED96), antibody on AHC biosensor, His-tag-huBTLA in solution
[2] = biological target: human BTLA extracellular domain with C-terminal 10xHis tag (human) (UniProt Q7Z6A9); assay: BLI (Octet RED96), antibody on AHC biosensor, His-tag-huBTLA in solution; column head prints nM, but Koff/Kon shows the values are in M

human BTLA extracellular domain with C-terminal 10xHis tag (human), sequence (Q7Z6A9 other isoform, or with tags, fused parts or gaps): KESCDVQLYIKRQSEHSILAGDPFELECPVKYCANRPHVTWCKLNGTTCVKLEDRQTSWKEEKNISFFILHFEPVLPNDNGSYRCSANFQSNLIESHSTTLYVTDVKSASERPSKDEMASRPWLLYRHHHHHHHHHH

Substance: Icatolimab (antibody)
- koff [1]: 0.00124 s⁻¹
- kon [1]: 621000 M⁻¹ s⁻¹
- Kd [2]: 2.09 nM
